Results reported in patent US8252764B2, “Compositions and methods of use of targeting peptides against placenta and adipose tissues” (priority 2000, dated 2012).
Where two headings read alike, the source gives them in different places.

Assays:
[1] = test system: placenta
Description: The CARAC peptide (SEQ ID NO:12), an adipose targeting peptide (FE, TREVHRS, SEQ ID NO:13) or fd-tet phage were used as non-placental targeting controls.

[2] = test system: white adipose vasculature; experiment: Peptide localization in white fat; format: in vivo, mouse; details: intravenous
Description: (A) and (B) Anti-phage immunohistochemistry in paraffin sections of subcutaneous white fat from leptin-deficient mice intravenously injected 6 hr prior to tissue processing. (C) and (D) Peptide-FITC immunofluorescence in paraffin sections of subcutaneous white fat from leptin-deficient mice intravenously injected 6 hr prior to tissue processing. […] (SEQ ID NO:22) linked to FITC peptide, or (D) control. CARAC (SEQ ID NO:12) linked to FITC peptide. […] Bar: 10 μm.
(A), (C) and (E) Peptide-FITC immunofluorescence or (B), (D) and (F) lectin-rhodamine immunofluorescence in blood vessels of (A), (B), (E) and (F) subcutaneous white fat or (C) and (D) pancreas controls detected in paraffin-sectioned tissues from c57bl/6 mice intravenously co-injected 5 min prior to tissue processing. […] (SEQ ID NO:22) linked to FITC peptide and lectin-rhodamine; or (E) and (F) control CARAC (SEQ ID NO:12) linked to FITC peptide and lectin-rhodamine; (B), (D) and (F) Arrows show endothelium marked with lectin. […] Bar: 10 μm.
Staining of formalin-fixed, paraffin-embedded mouse tissue sections was performed (Pasqualini & Rouslahti, 1996; Pasqualini et al., 2000). For phage-peptide immunolocalization, 10^10 TU of [sequence] […] Apoptosis was detected using standard TUNEL immunohistochemistry and an HRP-conjugated antibody. […]

[3] = test system: mouse villous yolk sac (vys); experiment: Peptide localization in placenta (immunohistochemistry, FITC immunofluorescence); format: in vivo; details: 18 dpc pregnant mice, intravenous, 6 h
Procedure: Fusion and Recombinant Peptides Carboxyfluorescein (FITC)-conjugated [sequence] […] The FITC-peptide stocks were made by dissolving lyophilized peptides in DMSO to a concentration of 20 mM, after which the peptides were diluted to 1 mM with PBS (phosphate buffered saline) and aliquots were frozen until use. The [sequence] (SEQ ID NO:144) peptide and an unrelated control peptide, [sequence] (SEQ ID NO:87), fused in-frame with GST at the amino-terminus were purified to approximately 90% purity using the BugBuster GST Bind Kit (Novagen, Madison, Wis.). Purified peptides were buffer-exchanged into PBS using Centricon PL-10 columns (Millipore, Bedford, Mass.) and the aliquots were frozen until use. […]
Peptide Localization in Tissues Immunohistochemistry on sections of formalin-fixed, paraffin-embedded mouse tissue was performed as described (Pasqualini et al., 2000; Pasqualini and Ruoslahti, 1996): For phage-peptide immunolocalization, a rabbit anti-fd phage antibody (Sigma Chemicals, St. Louis, Mo.) was used at 1:1,000 dilution and detected with a secondary horseradish peroxidase (HRP)-conjugated antibody. For GST-peptide immunolocalization, a goat anti-GST antibody (Amersham, Piscataway, N.J.) was used at 1:1,000 dilution and detected with a secondary alkaline phosphatase (AP)-conjugated antibody. […]

[4] = test system: MDA-MB-435-derived tumor xenografts; experiment: In vivo tumor homing of APA-binding phage; parameters: species or system mouse
Procedure: FIG. 31. APA-binding phage specifically bind tumors. Equal amounts of phage were injected into the tail veins of mice bearing MDA-MB-435-derived tumors and phage were recovered after perfusion. Mean values for phage recovered from the tumor or control tissue (brain) and the standard error from triplicate platings are shown.
MDA-MB-435-derived tumor xenografts were established in female nude mice 2 months old (Jackson Labs, Bar Harbor, Me.). Mice were anesthetized with Avertin and injected intravenously through the tail vein with 10^9 TU of the phage in a 200 μl volume of DMEM. The phage were allowed to circulate for 5 min, and the animals were perfused through the heart with 5 ml of DMEM. The tumor and brain were dissected from each mouse, weighed, and equal amounts of tissue were homogenized. The tissue homogenates were washed three times with ice-cold DMEM containing a proteinase inhibitor cocktail and 0.1% BSA. Bound phage were rescued and counted as described for cell panning. Fd-tet phage was injected at the same input as a control. The experiment was repeated twice. In parallel, part of the same tissue samples were fixed in Bouin solution, and imbedded in paraffin for preparation of tissue sections. An antibody to M-13 phage (Amersham-Pharmacia) was used for the staining.

[5] = test system: placental transporter; experiment: Phage recovery from embryos (materno-fetal transfer); format: in vivo, mouse; details: excess of co-injected peptide
Procedure: FIG. 4. The TPKTSVT (SEQ ID NO:5) peptide specifically binds a placental transporter. (A) Recovery of indicated phage from embryos carried by 18 dpc pregnant mice intravenously injected (tail vein) with 10^10 TU of the indicated phage 6 h prior to phage recovery or immunohistochemistry. […] TPKTSVT (SEQ ID NO:5) phage were administered alone (dark cross-hatched) or co-administered with control-GST (black) or TPKTSVT (SEQ ID NO:5) linked to GST (white bar). Shown are mean+/−SEM (standard error) from different embryos. (B-D) Anti-phage IMP immunohistochemistry (arrowheads) in paraffin sections of the vys from the corresponding mice, as indicated. Asterisks mark embryonic capillaries. Bar: 20 μm.
Phage Recovery Mouse placentas and embryonic livers were individually weighed, ground with a glass Dounce homogenizer and suspended in 1 ml of Dulbecco's Modified Eagle's Medium (DMEM) containing proteinase inhibitors (DMEM-prin—1 mM PMSF, 20 μg/ml aprotinin, and 1 μg/ml leupeptin). The suspension was vortexed and washed three times with DMEM-prin. […]
The TPKTSVT (SEQ ID NO:5) Peptide Binds to a Placental Transporter The TPKTSVT (SEQ ID NO:5) peptide localizes to the vys (FIG. 3), which is the tissue primarily responsible for materno-fetal transport in mice. […] Either TPKTSVT (SEQ ID NO:5)-phage or control phage were injected into pregnant mice and the recovery of phage from embryos was determined.

[6] = test system: placenta; experiment: Peptide embryotoxicity in pregnant mice; format: in vivo, mouse
Description: FIG. 7. TPKTSVT (SEQ ID NO:5) peptide inhibits mouse pregnancy and is teratogenic. (A) Pregnancy courses (representative from 5 independent experiments) in mice subcutaneously injected with the indicated phage or peptides were monitored by daily weighing of the mice upon each injection (arrows). (B) Appearance of a normally developed 20 dpc embryo (left) for control GST fusion treatment compared to a representative 20 dpc embryo (right) resulting from TPKTSVT (SEQ ID NO:5) linked to GST fusion treatment. A severely teratogenic phenotype is observed with the placental targeting fusion peptide. (C) and […]) Hematoxylin/eosin staining of 20 dpc paraffin-embedded placentas derived from mice injected for 7 days with (C) control GST fusion or (D) the TPKTSVT (SEQ ID NO:5) linked to GST fusion peptide. Note hemorrhage (black asterisks), necrosis (white asterisks), and fibrosis (arrowheads). Bar: 500 μm (50 μm for insets).
Peptide Embryotoxicity For peptide embryotoxicity studies, agents were injected at the following daily doses: GST-peptides 0.1 mg (˜3 nMoles), FITC-peptides 50 μg (˜30 nMoles),and phage-peptides 10″ TU. All agents were dissolved in PBS. Mice were injected subcutaneously in the back (5-10 injections per course).
The phage or fusion peptides were subcutaneously injected and the progression of pregnancy was compared with mice injected with control phage, control peptides, or saline. Multiple injections of the TPKTSVT (SEQ ID NO:5) peptide were administered, starting at mid-pregnancy (˜12 days postconception, dpc) in doses non-toxic to the mother.

[7] = target: T1, β5 integrin (Homo sapiens, UniProt P18084); experiment: Annexin V binding to GST-β5 integrin cytoplasmic domain (ELISA, competition)
T1 construct: Plates were coated with GST fusion proteins of the cytoplasmic domains of various integrins
T1 sequence (P18084 743-799 limits assumed): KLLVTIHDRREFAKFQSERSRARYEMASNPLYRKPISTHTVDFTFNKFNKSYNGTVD
Procedure: FIG. 29A. Competitive binding of Annexin V to β5 integrin with VISY peptide. Binding assays were performed by ELISA.
Competitive binding assays were performed to examine the binding of Annexin V to β5 integrin and the effect of the VISY peptide. Plates were coated with GST fusion proteins of the cytoplasmic domains of various integrins and Annexin V was added to the plates. Binding of Annexin V was determined using anti-Annexin V antibodies. […] Calcium was used because Annexin V activity has been reported to be modulated by calcium. Binding of Annexin V to GST-β5 was blocked by addition of the VISY peptide (FIG. 29A).
A reciprocal study was performed, using Annexin V to coat plates and adding GST fusion proteins of integrin cytoplasmic domains. Binding was assessed using anti-GST fusion protein antibodies. […] In some studies, calcium ion appeared to interfere with the binding interaction between GST-β5 and Annexin V, with decreased binding observed in the presence of calcium (not shown).

[8] = test system: HUVEC cells; experiment: Apoptosis assay in HUVEC (propidium iodide, chromatin fragmentation); format: cell-based, human; details: 10^6 HUVEC, 15 μM, 2-4 hours
Procedure: FIG. 26. Penetratin peptide chimera binding to the β5 cytoplasmic domain induces programmed cell death. 10^6 HUVEC cells were harvested in complete media and 15 μM penetratin peptide chimeras were added to the cells. […] (a) Profile obtained with starved cells after 24 h. (b) Confluent cells in complete media. (c) 15 μM of penetratin after four hours. (d) 15 μM of VISY-penetratin chimera after four hours.
FIG. 30. Chimeric peptide containing VISY peptide linked to penetratin (antennapedia) induces apoptosis. VISY induced apoptosis was inhibited by addition of a caspase inhibitor (zVAD).
Approximately 1×10^6 cells were harvested in complete media and 15 AM of peptide added for 4, 8, or 12 h. The cellswere then washed in PBS and resuspended in 0.5 ml propidium iodide solution (50 μg/ml PI, 0.1% Triton X-100, 0.1% sodium citrate). After a 24-h incubation at 4° C., cells were counted with a XL Coulter (Coulter Corporation) with a 488-nm laser; 12,000 cells were counted for each histogram, and cell cycle distributions were analyzed with Multicycle program.
Approximately 1×10^6 cells were harvested in complete medium, and 15 μM of peptide was added for 4, 8, or 12 hours. The cells were then washed in PBS and resuspended in 0.5 ml propidium iodide solution (50 μg/ml PI, 0.1% Triton X-100, 0.1% sodium citrate). After a 24-h incubation at 4° C., the cells were counted with an XL Coulter (Coulter Corporation) with a 488 nm laser; 12,000 cells were counted for each histogram, and cell cycle distributions were analyzed with the Multicycle program.
10^6 HUVEC were treated with 15 μM of VISY antennapedia (penetratin) chimera or 15 μM of antennapedia peptide (pentratin) alone for 2-4 hours and chromatin fragmentation was analyzed by electrophoresis in an agarose gel.

[9] = test system: mouse spleen cells; experiment: Testing Fab clones in vitro using BRASIL; format: cell-based; details: for binding to mouse spleen cells compared to Fd-tet control: BRASIL, FIG. 13; for binding to mouse spleen cells compared to NPC-3TT: FIG. 14
Procedure: FIG. 13. Spleen targeting in vitro using BRASIL. Binding of Fab clones #2, #6, #10, #12 and control Fab clone NPC-3TT were directly compared to each other.
A singe cell suspension was prepared from two mouse spleens. The suspension was divided into five tubes and incubated on ice with 3×10^9 TU of Fab clones #2, #6, #10, #12 and 2×10^9 TU tet-phage. Phage bound to mouse spleen cells were recovered by BRASIL. 200 μl of log phase ER2537 E.coli was infected with the pellet and serial dilutions were plated on LB/carbenicillin and LB/tetracycline plates for assessment of phage binding. Fd-tet was used as an internal control to normalize all the phage homing experiments.

[10] = test system: mouse spleen; experiment: Testing Fab clones in vivo with BRASIL; details: 5 minutes circulation
[11] = FITC conjugates-I, 1 mouse iv (predominantly) or ip ~every other day, day 1-day 18, 9 times, Total 450 mM (~450 μg)
[12] = FITC conjugates-II, 1 mouse sc (predominantly) or iv ~every other day, day 4-day 17, 10 times, Total 1M (~1 mg)

**Q.** For “CARAC-FITC: FITC-conjugated control peptide CARAC (SEQ ID NO:12)”, which “Peptide Effect on Embryo” value [1, 11] is on record?
**A.** Its value is “No effect”.

**Q.** And the “Pregnancy Outcome” value [1, 11]?
**A.** Its value is “Delivery: 18 d, 5 normal pups”.

**Q.** What about the “Peptide Effect on Embryo” value [1, 12] of the same molecule?
**A.** Its value is “Slight toxicity?”.

**Q.** And the “Pregnancy Outcome” value [1, 12]?
**A.** Its value is “Delivery: 20 d, 5 pups, 1-dead”.

**Q.** What about the “localization in white fat of wild-type mice” value ([2]; C57BL/6 (leptin+/+) mice, co-injected lectin-rhodamine) of the same molecule?
**A.** The value was “not detectable in white fat vasculature”.

**Q.** What about the “localization in white fat of ob/ob mice” value ([2]; leptin-deficient mice) of the same molecule?
**A.** Its value is “undetectable in adipose tissue”.

**Q.** And the localization in placenta [3]?
**A.** Its localization in placenta is “not detectable in the placenta”.

**Q.** What does the source list for CPKVCPRECESNC?
**A.** anti-M13 immunostaining on tissue sections ([4]; not shown): Strong phage staining was apparent in tumor vasculature but not in normal vasculature; phage enrichment in tumor xenografts compared to brain tissue ([4]; nude mice, 10^9 TU iv, 5 min): 4 fold

**Q.** For TPKTSVT [placenta targeting peptide], which “effect on materno-fetal transfer / vys uptake of TPKTSVT-phage on co-injection” value [5] is on record?
**A.** The value was “blocked”.

**Q.** And the “toxicity to the mother” value ([6]; data not shown)?
**A.** Its value is “no signs of peptide toxicity to the mother were observed”.

**Q.** What about the “histopathological examination of the placentas” value ([6]; seven days of peptide administration) of the same molecule?
**A.** The value was “massive dilation of blood vessels and intraplacental bleeding, as well as widespread hemorrhagic necrosis”.

**Q.** For VVISYSMPD, which “inhibition of Annexin V binding to GST-β5” value ([7]; in the absence of calcium) is on record?
**A.** The value was 45%.

**Q.** And the “inhibition of Annexin V binding to GST-β5” value ([7]; in the presence of calcium)?
**A.** The value was 67%.

**Q.** What about the “induction of apoptosis (chromatin fragmentation)” value [8] of the same molecule?
**A.** Its value is “Neither VISY nor penetratin alone induced apoptosis”.

B1: Fab clone #6: chicken anti-mouse spleen Fab phage clone selected by BRASIL (protein)
chain: CQPAMAAVTLDESGGGLQTPGGTLSLVCKASGISIGYGMNWVRQAPGKGLEYVASISGDGNFAHYGAPVKGRATISRDDGQNTVTLQLNNLR
**Q.** What does the source list for B1?
**A.** binding to mouse spleen cells compared to Fd-tet control [9]: lowest degree of binding; binding to mouse spleen cells compared to NPC-3TT [9]: only slightly higher than the binding of phage NPC-3TT; binding / localization to spleen compared to Fd-tet phage [10]: many-fold increased binding to spleen

B2: Fab clone #2: chicken anti-mouse spleen Fab phage clone selected by BRASIL (protein)
chain: CQPAMAAVTLDESGGGLQTPGGALSLVCKASGFTFNSYPMGWVRQAPGKGLEWVAVISSSGTTWYAPAVKGRATISRDNGQSTVRLQLSNLRAED
**Q.** What does the source list for B2?
**A.** binding to mouse spleen cells compared to Fd-tet control [9]: at least a two-fold increased binding; binding to mouse spleen cells compared to NPC-3TT [9]: highest levels of binding to mouse spleen cells; binding / localization to spleen compared to Fd-tet phage [10]: many-fold increased binding to spleen

B3: Fab clone #12: chicken anti-mouse spleen Fab phage clone selected by BRASIL (protein)
chain: ANQPWPPLTLDESGGGLQTPGGALSLVCKASGFTMSSYDMFWVRQAPGKGLEFVAGISSSGSSTEYGAAVKGRATISRDNGQSTVRLQLNNLRAED
**Q.** How did the “binding to mouse spleen cells compared to Fd-tet control” value [9] turn out when B3 was run?
**A.** Its value is “selective binding to mouse spleen cells”.

**Q.** And the “binding to mouse spleen cells compared to NPC-3TT” value [9]?
**A.** Its value is “only slightly higher than the binding of phage NPC-3TT”.

**Q.** What about the “binding / localization to spleen compared to Fd-tet phage” value [10] of the same molecule?
**A.** The value was “did not exhibit significantly elevated binding to mouse spleen”.
